Like-named read-outs stand apart in the source and are kept apart here.
Key:
[1] = biological target: recombinant human TFPI (tissue factor pathway inhibitor) (human) (UniProt P10646); assay: cell-based or functional assay
[2] = biological target: recombinant human TFPI (tissue factor pathway inhibitor) (human) (UniProt P10646); assay: cell-based or functional assay; remark: listed apart in the source
[3] = biological target: recombinant human TFPI (tissue factor pathway inhibitor) (human) (UniProt P10646)
[4] = biological target: recombinant human TFPI (tissue factor pathway inhibitor) (human) (UniProt P10646); remark: listed apart in the source
[5] = biological target: recombinant human TFPI (tissue factor pathway inhibitor) (human) (UniProt P10646); remark: listed apart in the source
[6] = biological target: recombinant human TFPI (tissue factor pathway inhibitor) (human) (UniProt P10646); remark: listed apart in the source
[7] = biological target: recombinant human TFPI (tissue factor pathway inhibitor) (human) (UniProt P10646); assay: cell-based or functional assay; remark: listed apart in the source
[8] = biological target: recombinant human TFPI (tissue factor pathway inhibitor) (human) (UniProt P10646); remark: listed apart in the source
[9] = biological target: recombinant human TFPI (tissue factor pathway inhibitor) (human) (UniProt P10646); remark: listed apart in the source
[10] = biological target: recombinant human TFPI (tissue factor pathway inhibitor) (human) (UniProt P10646); remark: listed apart in the source

B1: mAb2021 (anti-TFPI Ab, Novo Nordisk) (antibody, from another filing, V domains shown)
VH: EVQLVESGGGLVKPGGSLRLSCAASGFTFSNYAMSWVRQTPEKRLEWVATISRSGSYSYFPDSVQGRFTISRDNAKNSLYLQMNSLRAEDTAVYYCARLGGYDEGDAMDSWGQGTTVTVSS
VL: DIVMTQTPLSLSVTPGQPASISCKSSQSLLESDGKTYLNWYLQKPGQSPQLLIYLVSILDSGVPDRFSGSGSGTDFTLKISRVEAEDVGVYYCLQATHFPQTFGGGTKVEIKR
B1 showed an A405, TF/FVIIa/FX complex assay, Ab 50 nM [1] of 0.73, an A405, TF/FVIIa/FX complex assay, Ab 100 nM [1] of 0.852 and a % of Normalized, TF/FVIIa/FX complex assay, Ab 1.56 nM [2] of 15.8%. For the same binder, the % of Normalized, TF/FVIIa/FX complex assay, Ab 3.13 nM [2] was 17.9%, the % of Normalized, TF/FVIIa/FX complex assay, Ab 6.25 nM [2] was 18.8% and the % of Normalized, TF/FVIIa/FX complex assay, Ab 12.5 nM [2] was 24.4%. It also gave a % of Normalized, TF/FVIIa/FX complex assay, Ab 25 nM [2] of 100%, a % of Normalized, TF/FVIIa/FX complex assay, Ab 50 nM [2] of 99.6% and a % of Normalized, TF/FVIIa/FX complex assay, Ab 100 nM [2] of 101%. For the same binder, the FXa assay % of FXa alone, 2.5 nM Ab, 10 nM TFPI [3] was 8.4%, the FXa assay % of FXa alone, 5 nM Ab, 10 nM TFPI [3] was 21% and the FXa assay % of FXa alone, 10 nM Ab, 10 nM TFPI [3] was 90.7%. It also gave an FXa assay % of FXa alone, 20 nM Ab, 10 nM TFPI [3] of 95.2%, an FXa assay OD, 2.5 nM Ab, 10 nM TFPI [3] of 0.101 and an FXa assay OD, 5 nM Ab, 10 nM TFPI [3] of 0.249. It also gave an FXa assay OD, 10 nM Ab, 10 nM TFPI [3] of 1.08, an FXa assay OD, 20 nM Ab, 10 nM TFPI [3] of 1.13 and an FXa assay % of FXa alone, 2.5 nM Ab, 10 nM TFPI [4] of 8.5%. For the same binder, the FXa assay % of FXa alone, 5 nM Ab, 10 nM TFPI [4] was 66.6%, the FXa assay % of FXa alone, 10 nM Ab, 10 nM TFPI [4] was 92.3% and the FXa assay % of FXa alone, 20 nM Ab, 10 nM TFPI [4] was 87.6%. The FXa assay OD, 2.5 nM Ab, 10 nM TFPI [4] was 0.07, the FXa assay OD, 5 nM Ab, 10 nM TFPI [4] was 0.55 and the FXa assay OD, 10 nM Ab, 10 nM TFPI [4] was 0.763. For the same binder, the FXa assay OD, 20 nM Ab, 10 nM TFPI [4] was 0.724, the FXa assay % of FXa alone, 2.5 nM Ab, 10 nM TFPI [5] was 6.6% and the FXa assay % of FXa alone, 5 nM Ab, 10 nM TFPI [5] was 35%. The FXa assay % of FXa alone, 10 nM Ab, 10 nM TFPI [5] was 98.5%, the FXa assay % of FXa alone, 20 nM Ab, 10 nM TFPI [5] was 85.8% and the FXa assay OD, 2.5 nM Ab, 10 nM TFPI [5] was 0.032. It also gave an FXa assay OD, 5 nM Ab, 10 nM TFPI [5] of 0.17, an FXa assay OD, 10 nM Ab, 10 nM TFPI [5] of 0.476 and an FXa assay OD, 20 nM Ab, 10 nM TFPI [5] of 0.415. For the same binder, the FXa assay % of FXa alone, 2.5 nM Ab, 10 nM TFPI [6] was 12.3%, the FXa assay % of FXa alone, 5 nM Ab, 10 nM TFPI [6] was 90% and the FXa assay % of FXa alone, 10 nM Ab, 10 nM TFPI [6] was 96.5%. The FXa assay % of FXa alone, 20 nM Ab, 10 nM TFPI [6] was 88.8%, the FXa assay OD, 2.5 nM Ab, 10 nM TFPI [6] was 0.0945 and the FXa assay OD, 5 nM Ab, 10 nM TFPI [6] was 0.693. It also gave an FXa assay OD, 10 nM Ab, 10 nM TFPI [6] of 0.743, an FXa assay OD, 20 nM Ab, 10 nM TFPI [6] of 0.683 and a % of Normalized, TF/FVIIa/FX complex assay, Ab 1.56 nM [7] of 15%. For the same binder, the % of Normalized, TF/FVIIa/FX complex assay, Ab 3.13 nM [7] was 15.6%, the % of Normalized, TF/FVIIa/FX complex assay, Ab 6.25 nM [7] was 17% and the % of Normalized, TF/FVIIa/FX complex assay, Ab 12.5 nM [7] was 26.3%. For the same binder, the % of Normalized, TF/FVIIa/FX complex assay, Ab 25 nM [7] was 102%, the % of Normalized, TF/FVIIa/FX complex assay, Ab 50 nM [7] was 104% and the % of Normalized, TF/FVIIa/FX complex assay, Ab 100 nM [7] was 104%. The FXa assay % of FXa alone, 2.5 nM Ab, 10 nM TFPI [8] was 6.2%, the FXa assay % of FXa alone, 5 nM Ab, 10 nM TFPI [8] was 16.4% and the FXa assay % of FXa alone, 10 nM Ab, 10 nM TFPI [8] was 87.5%. The FXa assay % of FXa alone, 20 nM Ab, 10 nM TFPI [8] was 84.6%, the FXa assay OD, 2.5 nM Ab, 10 nM TFPI [8] was 0.0475 and the FXa assay OD, 5 nM Ab, 10 nM TFPI [8] was 0.125. For the same binder, the FXa assay OD, 20 nM Ab, 10 nM TFPI [8] was 0.644, the FXa assay % of FXa alone, 2.5 nM Ab, 10 nM TFPI [9] was 9.2% and the FXa assay % of FXa alone, 5 nM Ab, 10 nM TFPI [9] was 87%. The FXa assay % of FXa alone, 10 nM Ab, 10 nM TFPI [9] was 95.7%, the FXa assay % of FXa alone, 20 nM Ab, 10 nM TFPI [9] was 98.3% and the FXa assay OD, 2.5 nM Ab, 10 nM TFPI [9] was 0.0745. It also gave an FXa assay OD, 5 nM Ab, 10 nM TFPI [9] of 0.702, an FXa assay OD, 10 nM Ab, 10 nM TFPI [9] of 0.772 and an FXa assay OD, 20 nM Ab, 10 nM TFPI [9] of 0.793. It also gave an FXa assay % of FXa alone, 2.5 nM Ab, 10 nM TFPI [10] of 5.6%, an FXa assay % of FXa alone, 5 nM Ab, 10 nM TFPI [10] of 10.7% and an FXa assay % of FXa alone, 10 nM Ab, 10 nM TFPI [10] of 77.7%. For the same binder, the FXa assay % of FXa alone, 20 nM Ab, 10 nM TFPI [10] was 84.5%, the FXa assay OD, 2.5 nM Ab, 10 nM TFPI [10] was 0.0485 and the FXa assay OD, 5 nM Ab, 10 nM TFPI [10] was 0.0935. It also gave an FXa assay OD, 10 nM Ab, 10 nM TFPI [10] of 0.676 and an FXa assay OD, 20 nM Ab, 10 nM TFPI [10] of 0.735.

From patent publication US20180030151A1
